Reference: the supplement of paper PMC11136658

System: peptide library, one residue held at a place counted from the Y acceptor
Assay: relative phosphorylation of the sub-library (ratio to the mean residue at this position); higher = residue favoured
In short: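 Biotinylated Tyr-centred peptide library mixtures, each fixing one residue at one position from −5 to +5, were incubated with purified recombinant kinases in 384-well plates for 90 min with 50 μM ATP plus γ-32P-ATP. Streptavidin membranes captured the peptides, which were rinsed and quantified by phosphorimaging and ImageQuant. At each position, intensities were divided by the sum of the 18 randomized residues (16 for the Ser/Thr-free library) and multiplied by that number. Each value is phosphorylation relative to the mean randomized residue.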

Sequence of EPHA6, construct: aa683-end, human (Q9UF33 683-1036, looked up): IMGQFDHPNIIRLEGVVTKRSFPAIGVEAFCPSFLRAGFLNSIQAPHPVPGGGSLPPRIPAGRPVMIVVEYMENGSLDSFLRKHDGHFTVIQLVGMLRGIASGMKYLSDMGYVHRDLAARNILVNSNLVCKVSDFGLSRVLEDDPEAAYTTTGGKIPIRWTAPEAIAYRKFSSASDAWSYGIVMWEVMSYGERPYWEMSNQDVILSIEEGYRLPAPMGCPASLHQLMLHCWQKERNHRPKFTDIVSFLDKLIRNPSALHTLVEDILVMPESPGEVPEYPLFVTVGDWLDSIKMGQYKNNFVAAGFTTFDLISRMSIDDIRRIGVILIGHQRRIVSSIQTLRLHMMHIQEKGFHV

EPHA6, construct: aa683-end, human (from UniProt Q9UF33)
relative phosphorylation
Details | at +1 | at +2 | at +3 | at +4 | at +5 | at -1 | at -2 | at -3 | at -4 | at -5
A fixed | 1.7 | 0.891 | 0.971 | 1.03 | 0.87 | 0.838 | 1.39 | 0.94 | 1.57 | 1.47
D fixed | 0.944 | 1.3 | 0.585 | 0.688 | 0.91 | 2.67 | 1.15 | 1.18 | 0.754 | 0.894
E fixed | 2.3 | 1.3 | 0.541 | 0.818 | 0.966 | 1.73 | 1.22 | 1.36 | 1.03 | 0.788
F fixed | 0.862 | 1.19 | 0.94 | 1.06 | 1.12 | 0.701 | 0.668 | 1.09 | 0.859 | 0.811
G fixed | 0.699 | 0.438 | 0.61 | 1.12 | 0.966 | 0.427 | 0.758 | 0.853 | 1.27 | 1.22
H fixed | 0.72 | 1.13 | 1.03 | 1.15 | 1.24 | 0.733 | 0.886 | 1.01 | 0.973 | 1.21
I fixed | 1.02 | 0.984 | 1.93 | 1 | 0.811 | 1.92 | 0.966 | 1.5 | 1.3 | 0.707
K fixed | 0.62 | 1.03 | 0.901 | 1.06 | 1.04 | 0.593 | 1.17 | 0.842 | 0.944 | 1.15
L fixed | 0.792 | 0.964 | 1.56 | 0.86 | 0.92 | 1.29 | 1.07 | 0.873 | 0.847 | 0.703
M fixed | 1.08 | 0.917 | 1.26 | 0.988 | 0.955 | 0.737 | 0.85 | 0.943 | 0.881 | 0.802
N fixed | 0.649 | 1.04 | 0.522 | 0.74 | 0.947 | 1.61 | 0.922 | 0.818 | 0.754 | 0.982
P fixed | 0.352 | 0.594 | 1.05 | 1.29 | 1.03 | 0.504 | 1.2 | 0.876 | 1.15 | 1.03
Q fixed | 1.31 | 0.779 | 0.716 | 0.882 | 0.942 | 0.535 | 1.02 | 0.735 | 0.942 | 0.998
R fixed | 0.916 | 1.3 | 1.06 | 1.27 | 1.09 | 0.63 | 1.3 | 1.01 | 1.05 | 1.45
S fixed | 0.808 | 0.748 | 0.684 | 0.848 | 0.993 | 0.535 | 1.21 | 0.951 | 0.826 | 0.949
T fixed | 0.678 | 0.703 | 0.673 | 0.794 | 0.979 | 0.798 | 0.84 | 0.893 | 0.755 | 0.91
V fixed | 1.54 | 1.06 | 1.64 | 1.08 | 0.85 | 1.2 | 0.781 | 1.11 | 1.2 | 0.954
W fixed | 1 | 1.64 | 1.32 | 1.32 | 1.36 | 0.528 | 0.605 | 1.01 | 0.894 | 0.981
pThr fixed | 1.37 | 1.63 | 0.624 | 0.561 | 0.816 | 2.9 | 1.03 | 0.842 | 0.799 | 0.686
pTyr fixed | 1.48 | 3.8 | 0.659 | 0.576 | 1.01 | 2.12 | 0.946 | 0.911 | 0.73 | 0.677
